The target of this assay is amyloid-β (1–42) (UniProt P05067).

Non-standard residues stand in square brackets, D forms with d. No end group written: not given here.

B1: CDP-1D, D-enantiomeric form of CDP-1 (peptide)
peptide: Ac-[dK][dK][dC][dC][dK][dW][dR][dW][dR][dC][dD][dM][dK]
modifications: not fully specified (C-terminus); cysteine pairing not given here; also: methylated at the C-terminus
For B1, the ThT fluorescence of Aβ42 aggregation (10 μM Aβ42, 28 μM peptide, 24 h); inhibition of the self-aggregation of Aβ42 came to 100%.

The values are drawn from paper PMC11258689, “A Snake Venom Peptide and Its Derivatives Prevent Aβ42 Aggregation and Eliminate Toxic Aβ42 Aggregates In Vitro” (ACS Chemical Neuroscience, 2024).
